The values that follow come from patent US20030138440A1 (published 2003).

Ends that are not written are not given here.

The target of series [1] is ICAM-1 on HeLa cells (human) (UniProt P05362). Put plainly: cell-based or functional assay.
Series [2] concerns the molecule itself. Put plainly: self-association of the chimeric protein; size exclusion HPLC. As for the experimental part: By correlation with sedimentation velocity data, the multimerization state of additional ATFα-based domains was determined by size exclusion HPLC. HPLC size exclusion chromatography was performed on a column selected to resolve species of chimeric multimers ranging from dimers through pentamers. The selected column also resolved species including the Fab moiety of the chimera: Tetramers (6.5S by ultracentrifugation) consistently eluted from the column at 13.7±0.1 min.; trimers (5.5S) eluted at 14.0±0.1; and dimers (4.5S) eluted at 15.0±0.1 min. Data on additional domains is listed in Table 7 along with those determined by sedimentation.
On the technique in general: SEC sorts molecules by how far they enter the pores of the column.

Sequence of ICAM-1 on HeLa cells (human) (P05362 28-532): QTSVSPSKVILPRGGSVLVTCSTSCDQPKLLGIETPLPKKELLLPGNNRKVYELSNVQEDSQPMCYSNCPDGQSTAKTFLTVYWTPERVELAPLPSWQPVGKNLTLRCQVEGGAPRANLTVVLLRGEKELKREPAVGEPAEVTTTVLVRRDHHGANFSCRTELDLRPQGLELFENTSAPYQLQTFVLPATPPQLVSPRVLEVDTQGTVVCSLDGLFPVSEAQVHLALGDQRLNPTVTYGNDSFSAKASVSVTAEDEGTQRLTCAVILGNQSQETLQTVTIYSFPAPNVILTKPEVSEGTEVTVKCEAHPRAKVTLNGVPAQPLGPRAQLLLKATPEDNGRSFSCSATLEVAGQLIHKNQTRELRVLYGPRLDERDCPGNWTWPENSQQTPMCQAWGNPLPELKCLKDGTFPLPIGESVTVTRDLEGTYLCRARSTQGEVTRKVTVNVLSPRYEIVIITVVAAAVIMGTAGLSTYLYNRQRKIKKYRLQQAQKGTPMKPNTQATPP

The molecule “anti-ICAM-1 monoclonal antibody RR/1 (Chemicon)” had an EC50, protection of HeLa cells from HRV15 infection in series [1] greater than 10 nM.

B1: chimeric fusion protein with the ATF2-IL domain (other, not shown: large carriers)
chain: IQSLEKKIEDLSSLIGQLQSEITLLRNEIAQ
modifications: also: domain of chimeric fusion protein, fusion partner and linker not given here
Regarding B1, in series [2], the binding result is “binds”.

B2: chimeric fusion protein with the ATF2-LI domain (other, not shown: large carriers)
chain: LQSIEKKLEDISSLLGQIQSELTLIRNELAQ
modifications: also: domain of chimeric fusion protein, fusion partner and linker not given here
For B2, the binding result in series [2] was “binds”.
The same measure, in the same setting: for LKSIENRLAVIENQLKTIIEELKTIKDLLSN (other, not shown: large carriers, also: chimeric fusion protein, fusion partner and linker not given here, copies left open) [chimeric fusion protein with the ATF-1-LI domain] the value was “binds”.

B3: chimeric fusion protein with the CREB-Pa-IL domain (other, not shown: large carriers)
chain: IMSLEKKIEELTQTIMQLQNEISMLKNEIAQ
modifications: also: domain of chimeric fusion protein, fusion partner and linker not given here
notes: also called CREB-IL
With B3, the binding result in series [2] was “binds”.

B4: chimeric fusion protein with the CJUN-IL domain (other, not shown: large carriers)
chain: IARLEEKIKTLKAQISELASTINMLREQIAQ
modifications: also: domain of chimeric fusion protein, fusion partner and linker not given here
Consider B4, for which, in series [2], the binding result is recorded as “binds”.

B5: chimeric fusion protein with the ATF2-LL domain (other, not shown: large carriers)
chain: LQSLEKKLEDLSSLLGQLQSELTLLRNELAQ
modifications: also: domain of chimeric fusion protein, fusion partner and linker not given here
In the case of B5, the binding result in series [2] is listed as “binds”.

B6: chimeric fusion protein with the CJUN-LL domain (other, not shown: large carriers)
chain: LARLEEKLKTLKAQLSELASTLNMLREQLAQ
modifications: also: domain of chimeric fusion protein, fusion partner and linker not given here
Take B6: the binding result in series [2] was “binds”.

B7: chimeric fusion protein with the CREB-Pa-LL domain (other, not shown: large carriers)
chain: LMSLEKKLEELTQTLMQLQNELSMLKNELAQ
modifications: also: domain of chimeric fusion protein, fusion partner and linker not given here
notes: also called CREB-LL
As for B7, the binding result in series [2] is “binds”.

B8: chimeric fusion protein with the JUN-D-LL domain (other, not shown: large carriers)
chain: LSRLEEKLKTLKSQLTELASTLSLLREQLAQ
modifications: also: domain of chimeric fusion protein, fusion partner and linker not given here
On to B8, for which, in series [2], the binding result is on record as “binds”.

B9: chimeric fusion protein with the ATF-1-II domain (other, not shown: large carriers)
chain: IKSIENRIAVIENQIKTIIEEIKTIKDLISN
modifications: also: domain of chimeric fusion protein, fusion partner and linker not given here
Turning to B9, the binding result in series [2] is given as “binds”.
Still for that read-out and setting: with LMSIEKKLEEITQTLMQIQNELSMIKNELAQ (other, not shown: large carriers, also: chimeric fusion protein, fusion partner and linker not given here, also called CREB-LI) [chimeric fusion protein with the CREB-Pa-LI domain] the entry was “binds”.

B10: chimeric fusion protein with the CJUN-LI domain (other, not shown: large carriers)
chain: LARIEEKLKTIKAQLSEIASTLNMIREQLAQ
modifications: also: domain of chimeric fusion protein, fusion partner and linker not given here
On to B10, for which the binding result in series [2] is “binds”.

B11: chimeric fusion protein with the ATF-1-IL domain (other, not shown: large carriers)
chain: IKSLENRIAVLENQIKTLIEEIKTLKDLISN
modifications: also: domain of chimeric fusion protein, fusion partner and linker not given here
On to B11, for which, in series [2], the binding result is on record as “binds”.

B12: chimeric fusion protein with the JUN-D-LI domain (other, not shown: large carriers)
chain: LSRIEEKLKTIKSQLTEIASTLSLIREQLAQ
modifications: also: domain of chimeric fusion protein, fusion partner and linker not given here
Take B12: the binding result in series [2] is recorded as “binds”.

B13: chimeric fusion protein with the ATF-1-LL domain (other, not shown: large carriers)
chain: LKSLENRLAVLENQLKTLIEELKTLKDLLSN
modifications: also: domain of chimeric fusion protein, fusion partner and linker not given here
For the molecule B13, the binding result in series [2] is recorded as “binds”.
